Among the data in article PMC4140855, “Production of an Attenuated Phenol-Soluble Modulin Variant Unique to the MRSA Clonal Complex 30 Increases Severity of Bloodstream Infection” (PLoS Pathogens, 2014) are Kd values, retold here.

Where no end group is shown, it is not given here. The star is where a group is joined. For = O=C*

Common to all, as to assay: Ca2+ flux in FPR-transfected HL60 cells, one-site binding model
For orientation: Calcium flux is commonly read through the fluorescence of an indicator in the cells.

One experiment has as its target T1, FPR1 (Homo sapiens, UniProt P21462).
T1 chain: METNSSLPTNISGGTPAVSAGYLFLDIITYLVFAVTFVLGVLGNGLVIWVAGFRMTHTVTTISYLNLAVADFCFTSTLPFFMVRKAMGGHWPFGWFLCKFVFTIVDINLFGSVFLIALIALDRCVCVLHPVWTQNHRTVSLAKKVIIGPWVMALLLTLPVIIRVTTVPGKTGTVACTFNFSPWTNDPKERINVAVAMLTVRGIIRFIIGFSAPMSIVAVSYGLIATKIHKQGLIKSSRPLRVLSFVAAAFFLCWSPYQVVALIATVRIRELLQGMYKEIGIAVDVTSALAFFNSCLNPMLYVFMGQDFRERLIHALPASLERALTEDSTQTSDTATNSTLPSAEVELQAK

Another experiment concerns the target T2, FPR2 (Homo sapiens, UniProt P25090).
T2 chain: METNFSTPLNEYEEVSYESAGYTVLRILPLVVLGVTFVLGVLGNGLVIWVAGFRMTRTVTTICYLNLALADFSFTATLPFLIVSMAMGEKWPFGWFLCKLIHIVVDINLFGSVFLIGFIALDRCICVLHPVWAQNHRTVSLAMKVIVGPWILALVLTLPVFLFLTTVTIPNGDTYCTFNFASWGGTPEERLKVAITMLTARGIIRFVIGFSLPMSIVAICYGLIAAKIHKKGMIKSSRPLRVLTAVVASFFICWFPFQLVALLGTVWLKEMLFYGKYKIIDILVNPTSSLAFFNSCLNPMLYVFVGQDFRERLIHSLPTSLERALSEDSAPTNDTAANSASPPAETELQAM

Another experiment has as its target T3, FPR3 (Homo sapiens, UniProt P25089).
T3 chain: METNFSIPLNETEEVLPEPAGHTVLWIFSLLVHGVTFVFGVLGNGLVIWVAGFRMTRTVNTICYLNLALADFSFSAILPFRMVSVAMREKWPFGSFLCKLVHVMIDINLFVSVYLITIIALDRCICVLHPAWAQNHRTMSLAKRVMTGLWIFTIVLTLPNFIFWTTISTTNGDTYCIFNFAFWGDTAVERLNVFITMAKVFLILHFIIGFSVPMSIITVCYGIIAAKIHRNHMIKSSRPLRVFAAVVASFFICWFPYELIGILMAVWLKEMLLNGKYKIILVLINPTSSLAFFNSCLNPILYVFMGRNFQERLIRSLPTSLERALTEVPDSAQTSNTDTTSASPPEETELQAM

Regarding For-MEFVAKLFKFFKDLLGKFLGNN [PSMα3], the Kd with FPR1 was 616 nM; in the experiment with FPR2, 11.9 nM; with FPR3, 1380 nM.

For orientation: Kd means the constant that tells how readily two partners part at equilibrium.
